Consider “synthetic peptide containing NEP-truncated human FpA and the first four residues of the main α-chain”, for which, in the test with human thrombin (human), the KM of cleavage of the peptide by thrombin (fluorescence polarisation cleavage assay, Michaelis-Menten fit) is 630 µM; the fold reduction of kcat/KM of cleavage by thrombin, truncated FpA peptide against the full length peptide came to 490 fold; the kcat of cleavage of the peptide by thrombin (fluorescence polarisation cleavage assay, Michaelis-Menten fit) worked out at 0.25 s⁻¹.

“synthetic peptide containing NEP-truncated rat FpA and the first four residues of the main α-chain” came in with a fold reduction of kcat/KM of cleavage by rat thrombin, truncated rat FpA peptide against the full-length rat FpA peptide with rat thrombin (rat) of 5.7 fold.

Turning to “synthetic peptide containing full-length human FpA and the first four residues of the main α-chain”, in the test with human thrombin (human), the KM of cleavage of the peptide by thrombin (fluorescence polarisation cleavage assay, Michaelis-Menten fit) came out at 51 µM; the kcat of cleavage of the peptide by thrombin (fluorescence polarisation cleavage assay, Michaelis-Menten fit) was 9.1 s⁻¹; the kcat/KM of cleavage of the peptide by thrombin (fluorescence polarisation cleavage assay, Michaelis-Menten fit) amounted to 0.18 µM⁻¹ s⁻¹.

The record behind these values is PMC4954676.
